Data from US20260139049A1 (PEDIATRIC IMMUNITY AND HEALTHCARE GUANGZHOU BIOTECHNOLOGY, published 2026).
Where two headings read alike, the source gives them in different places.

How the values were obtained:
[1] = target: T1, monkey CLDN6 (Cyno CLDN6) (monkey (Cyno)); test: FACS on CHO-K1-Cyno CLDN6 cells
T1 construct: whole, on cells; also called CHO-K1-Cyno CLDN6

[2] = target: T2, human CLDN6 (human, UniProt P56747 1-220); test: FACS on HEK293T-CLDN6 cells
T2 construct: whole, on cells; four-transmembrane protein; also called claudin-6; HEK293T-CLDN6
T2 sequence (looked up): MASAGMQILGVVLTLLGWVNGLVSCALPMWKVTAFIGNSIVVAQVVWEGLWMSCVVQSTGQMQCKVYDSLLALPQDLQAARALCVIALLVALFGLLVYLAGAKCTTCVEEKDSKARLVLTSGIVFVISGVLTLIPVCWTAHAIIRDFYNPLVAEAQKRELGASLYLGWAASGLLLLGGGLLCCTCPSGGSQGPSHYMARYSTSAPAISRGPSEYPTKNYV
Method: (§1) To detect a binding capacity of a chimeric or humanized antibody to CLDN6, a CLDN6-expressing cell line HEK293T-CLDN6 and a CLDN6-negative control cell line HEK293T were washed three times with PBS. 1×10⁵ test cells and 50 μL of an antibody solution to be tested were added to a 96-well plate, and incubated at 4° C. for 1 h. The cells were then washed three times with PBS. […] Finally, cells were washed three times with PBS, and signals were read using FACS.

[3] = target: T3, mouse CLDN6 (mouse, UniProt Q9Z262 1-219); test: FACS on CHO-K1-Mouse CLDN6 cells
T3 construct: whole, on cells; also called CHO-K1-Mouse CLDN6
T3 sequence (looked up): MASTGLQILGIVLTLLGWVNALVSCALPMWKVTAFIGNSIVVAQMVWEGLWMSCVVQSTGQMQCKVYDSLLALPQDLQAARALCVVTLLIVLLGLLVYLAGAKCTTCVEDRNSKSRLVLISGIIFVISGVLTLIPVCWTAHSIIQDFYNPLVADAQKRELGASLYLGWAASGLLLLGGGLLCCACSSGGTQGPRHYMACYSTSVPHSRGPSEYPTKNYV

[4] = target: T2, human CLDN6; test: FACS on PA-1 tumour cells; target on the cells taken as CLDN6
Method: (§2) The specific binding of a chimeric antibody to a tumor cell was detected by FACS, and an EC50 value was calculated accordingly to evaluate an inhibitory effect of the chimeric antibody on the tumor cell.
(§3) 50 μL of an antibody to be tested was added to a 96-well plate, then 1×10⁵ cells were added to each well, and incubation was conducted at 4° C. for 1 h. Cells were washed three times with PBS. […] Finally, cells were washed three times with PBS, and signals were read using FACS. A binding capacity of the antibody to each tumor cell was analyzed based on detection data.

[5] = target: T2, human CLDN6; test: FACS on HepG2 tumour cells; target on the cells taken as CLDN6
Method: as §2, §3

[6] = target: T2, human CLDN6; test: FACS on HEK293T-CLDN6 cells; remark: listed apart in the source
Method: as §1
(§4) An EC50 value (a concentration of an antibody that binds to half of binding sites at equilibrium) is calculated through nonlinear regression.

[7] = target: T4, human CLDN9 (human, UniProt O95484 1-217); test: FACS on 293T-CLDN9 cells, 10 µg/mL
T4 construct: whole, on cells; also called HEK293T-CLDN9
T4 sequence (looked up): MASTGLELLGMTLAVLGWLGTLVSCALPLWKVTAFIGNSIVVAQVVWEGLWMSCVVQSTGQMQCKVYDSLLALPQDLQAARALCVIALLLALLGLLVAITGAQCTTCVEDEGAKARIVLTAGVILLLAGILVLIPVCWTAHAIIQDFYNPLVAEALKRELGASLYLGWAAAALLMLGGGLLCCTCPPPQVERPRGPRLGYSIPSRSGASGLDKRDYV
Method: as §3, with “1× 10⁵” for “1×10⁵”, “Binding capacities” for “A binding capacity”, “CLDN9, CLDN3, and CLDN4 were” for “each tumor cell was”, “analyzed separately” for “analyzed”

[8] = target: T2, human CLDN6; test: FACS on 293T-CLDN6 cells, 10 µg/mL
[9] = target: T2, human CLDN6; test: FACS on HepG2 tumour cells; target on the cells taken as CLDN6; remark: listed apart in the source
Method: as §3

[10] = target: T5, human CLDN4 (human, UniProt O14493 1-209); test: FACS on 293T-CLDN4 cells, 10 µg/mL
T5 construct: whole, on cells; also called HEK293T-CLDN4
T5 sequence (looked up): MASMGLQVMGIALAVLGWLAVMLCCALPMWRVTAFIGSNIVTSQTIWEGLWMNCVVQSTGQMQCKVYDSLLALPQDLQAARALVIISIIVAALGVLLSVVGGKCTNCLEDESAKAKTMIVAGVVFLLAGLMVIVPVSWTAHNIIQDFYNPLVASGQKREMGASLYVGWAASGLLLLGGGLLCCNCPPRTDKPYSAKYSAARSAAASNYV
Method: as §3, with “1× 10⁵” for “1×10⁵”, “Binding capacities” for “A binding capacity”, “CLDN9, CLDN3, and CLDN4 were” for “each tumor cell was”, “analyzed separately” for “analyzed”

[11] = target: T2, human CLDN6; test: FACS on PA-1 tumour cells; target on the cells taken as CLDN6; remark: listed apart in the source
Method: as §3

[12] = target: T2, human CLDN6; test: ratio of FACS signals on CLDN6 cells over CLDN9 cells
Method: as §3, with “1× 10⁵” for “1×10⁵”, “Binding capacities” for “A binding capacity”, “CLDN9, CLDN3, and CLDN4 were” for “each tumor cell was”, “analyzed separately” for “analyzed”

[13] = target: T4, human CLDN9; test: FACS on 293T-CLDN9 cells, 10 µg/mL; remark: listed apart in the source
Method: as §3, with “1× 10⁵” for “1×10⁵”, “Binding capacities” for “A binding capacity”, “CLDN9, CLDN3, and CLDN4 were” for “each tumor cell was”, “analyzed separately” for “analyzed”

[14] = target: T6, human CLDN3 (human, UniProt O15551 1-220); test: FACS on 293T-CLDN3 cells, 10 µg/mL
T6 construct: whole, on cells; also called HEK293T-CLDN3
T6 sequence (looked up): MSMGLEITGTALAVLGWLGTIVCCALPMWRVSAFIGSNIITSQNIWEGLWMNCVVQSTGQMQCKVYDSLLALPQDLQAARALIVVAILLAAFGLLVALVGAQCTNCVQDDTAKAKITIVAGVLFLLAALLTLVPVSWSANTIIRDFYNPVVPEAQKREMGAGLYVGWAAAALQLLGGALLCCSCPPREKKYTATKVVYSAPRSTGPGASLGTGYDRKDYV
Method: as §3, with “1× 10⁵” for “1×10⁵”, “Binding capacities” for “A binding capacity”, “CLDN9, CLDN3, and CLDN4 were” for “each tumor cell was”, “analyzed separately” for “analyzed”

[15] = target: T2, human CLDN6; test: FACS on HepG2 tumour cells; target on the cells taken as CLDN6; remark: listed apart in the source
Method: as §3

[16] = target: T2, human CLDN6; test: cell-based or functional assay
[17] = target: T2, human CLDN6; test: ratio of FACS Geom.Mean on 293T-CLDN6 over 293T-CLDN9, 10 µg/mL
Method: as §3, with “1× 10⁵” for “1×10⁵”, “Binding capacities” for “A binding capacity”, “CLDN9, CLDN3, and CLDN4 were” for “each tumor cell was”, “analyzed separately” for “analyzed”

[18] = target: T2, human CLDN6; test: cell-based or functional assay; remark: listed apart in the source
[19] = target: T2, human CLDN6; test: FACS on 293T-CLDN6 cells, 10 µg/mL; remark: listed apart in the source
[20] = target: T2, human CLDN6; test: FACS on HEK293T-CLDN6 cells; remark: listed apart in the source
Method: as §1, §4

[21] = target: T2, human CLDN6; test: FACS on HEK293T-CLDN6 cells; remark: listed apart in the source
Method: as §1, §4

[22] = target: T4, human CLDN9; test: FACS on 293T-CLDN9 cells
[23] = target: T3, mouse CLDN6; test: FACS on CHO-K1-Mouse CLDN6 cells (FIG. 15)
[24] = target: T4, human CLDN9; test: FACS on 293T-CLDN9 cells, 10 µg/mL; remark: listed apart in the source
Method: as §3, with “1× 10⁵” for “1×10⁵”, “Binding capacities” for “A binding capacity”, “CLDN9, CLDN3, and CLDN4 were” for “each tumor cell was”, “analyzed separately” for “analyzed”

[25] = target: T2, human CLDN6; test: FACS on 293T-CLDN6 cells, 10 µg/mL; remark: listed apart in the source

B1: 47A5B10 (antibody, human IgG1, kappa, V domains shown)
VH: QGQLQQSGAELARPGASVKLSCKASGYTFTSYGISWVKQRTGQGLEWIGEIYPRSGNTYHNEKFKGKATLTADKSSSTAYMELRSLTSEDSAVYFCARSSYDYYAMDYWGQGTSVTVSS
VL: EIVVTQSPALMAASPGEKVTITCSVSSIISSSKLHWYQQKSETSPKPWIYGTSNLASGVPIRFSGSGSGTSYSLTISSMEAEDAATYYCQQWSSYPLTFGAGTKLELKR
notes: chimeric: murine variable regions on human IgG1 constant regions
- EC50 [1]: 0.343 µg/mL
- FACS signal [2]: 33000
- EC50 [3]: 0.633 µg/mL
- EC50 [4]: 0.737 µg/mL
- EC50 [5]: 1.38 µg/mL
- EC50 [6]: 0.674 µg/mL

B2: 51C10-M1 (antibody, human IgG1, kappa, V domains shown)
VH: EVQLQQSGPELVKPGASVKMSCKASGYTFTDYNMHWVKKSHGKSLEWIGYVNPNNAATSYNQKFKGKATLTVNKSSSTAYMELRSLTSEDSAVYNCARWDGYVYYYGLDYWGQGTSVTVSS
VL: DIQMTQSSSYLSVSLGGRVTITCKASDHINNWLAWYQQKPGNAPRLLISGATSLETGVPSRFSGSGSGKDYTLSITSLQTEDVATYYCQQYWSTPYTFGGGTKLEIKR
notes: 51C10H4 with G of NG in heavy-chain CDR2 changed to A; also called improved antibody 51C10-M1
- Geom.Mean [7]: 1170
- Geom.Mean [8]: 41400

B3: 54B5A7 (antibody, human IgG1, kappa, V domains shown)
VH: EVQLQQSGPELVKPGASVKMSCKASGYTFTDYNMHWVKKSHGKSLEWIGYINPNNGATNYNQKFKGKATLTVNKSSSTAYMELRSLTSEDSAVYNCARWDGYVYYYGMDYWGQGTSVTVSS
VL: DIQMTQSSSYLSVSLGGRVTITCKASDHINNWLAWYQQKPGNAPRLLISGATSLETGVPSRFSGSGSGKDYTLSITSLQTEDVATYYCQQYWNTPYTFGGGTKLEIKR
notes: chimeric IgG1
- EC50 [9]: 0.47 µg/mL
- EC50 [1]: 0.78 µg/mL
- Geom.Mean [10]: 104
- EC50 [11]: 0.415 µg/mL
- EC50 [3]: 1.5 µg/mL
- CLDN6/CLDN9 signal ratio [12]: ~200 fold
- EC50 [4]: 0.64 µg/mL
- Geom.Mean [13]: 141
- Geom.Mean [14]: 101
- EC50 [15]: 0.552 µg/mL
- EC50 [5]: 0.449 µg/mL
- ADCC dose-response fit: EC50 [16]: 0.0413 µg/mL
- ADCC dose-response fit: LogEC50 [16]: -1.39
- CLDN6/CLDN9 ratio [17]: 265
- CDC dose-response fit: EC50 [18]: 0.252 µg/mL
- CDC dose-response fit: LogEC50 [18]: -0.6
- Geom.Mean [19]: 37500
- EC50 [20]: 0.285 µg/mL
- EC50 [6]: 0.352 µg/mL

B4: RecA101 (antibody, human IgG1, kappa, V domains shown)
VH: EVQLQQSGPELVKPGASVKMSCKASGYTFTDYNMHWVKKSHGKSLEWIGYVNPNNGATSYNQKFKGKATLTVNKSSSTAYMELRSLTSEDSAVYNCARWDGYVYYYGLDYWGQGTSVTVSS
VL: DIQMTQSSSYLSVSLGGRVTITCKASDHINNWLAWYQQKPGNAPRLLISGATSLETGVPSRFSGSGSGKDYTLSITSLQTEDVATYYCQQYWNTPYTFGGGTKLEIKR
notes: heavy chain of 51C10H4 with light chain of 54B5A7; IgG1; also called improved chimeric monoclonal antibody RecA101; recombined chimeric monoclonal antibody RecA101
- Geom.Mean [7]: 1740
- EC50 [21]: 0.73 µg/mL
- Geom.Mean [8]: 41800

B5: 20A3-2A7 (antibody, human IgG1, kappa, V domains shown)
VH: QAYLQQSGAELVRSGASVKMSCKASGYTFTSYNMHWVKQTPGQGLEWIGYIYPGNGGTNYNQKFKGKATLTADTSSSTAYMQISSLTSEDSAVYFCARWKYYDKTTHYALDYWGQGTLVTVSS
VL: DIVLTQSPASLAVSLGQWATISCRASKSVSTSGYSYIHWHQQKPGQPPKLLIYLASNLESGVPARFSGSGSGTDFTLNIHPVEEEDAATYYCHHSRELPFTFGSGTKLEIKR
notes: as for B1
- binding result [22]: binds
- binding result [23]: binds

B6: 20A3-M1 (antibody, human IgG1, kappa, V domains shown)
VH: QAYLQQSGAELVRSGASVKMSCKASGYTFTSYNMHWVKQTPGQGLEWIGYIYPGNAGTNYNQKFKGKATLTADTSSSTAYMQISSLTSEDSAVYFCARWKYYDKTTHYALDYWGQGTLVTVSS
VL: DIVLTQSPASLAVSLGQWATISCRASKSVSTSGYSYIHWHQQKPGQPPKLLIYLASNLESGVPARFSGSGSGTDFTLNIHPVEEEDAATYYCHHSRELPFTFGSGTKLEIKR
notes: 20A3-2A7 with G of NG in heavy-chain CDR2 changed to A; also called improved antibody 20A3-M1
- Geom.Mean [24]: 243
- Geom.Mean [25]: 40200

B7: 20A3-M2 (antibody, human IgG1, kappa, V domains shown)
VH: QAYLQQSGAELVRSGASVKMSCKASGYTFTSYNMHWVKQTPGQGLEWIGYIYPGNQGTNYNQKFKGKATLTADTSSSTAYMQISSLTSEDSAVYFCARWKYYDKTTHYALDYWGQGTLVTVSS
VL: DIVLTQSPASLAVSLGQWATISCRASKSVSTSGYSYIHWHQQKPGQPPKLLIYLASNLESGVPARFSGSGSGTDFTLNIHPVEEEDAATYYCHHSRELPFTFGSGTKLEIKR
notes: 20A3-2A7 with G of NG in heavy-chain CDR2 changed to Q; also called improved antibody 20A3-M2
- Geom.Mean [24]: 297
- Geom.Mean [25]: 34000
